Source: patent US20200054723A1 (ALLAKOS, published 2020)
Substitutions are numbered along the chain they refer to. Where “and” joins values, the source holds several entries; their conditions need not be identical. Equal values may be shown once.

B1: HCKB (antibody, human IgG1, V domains shown)
VH: EVQLVESGGGLVQPGGSLRLSCAVSGFSLTIYGAHWVRQAPGKGLEWVSVIWAGGSTNYNSALMSRFTISKDNSKNTVYLQMNSLRAEDTAVYYCARDGSSPYYYSMEYWGQGTTVTVSS
VL: EIILTQSPATLSLSPGERATLSCSATSSVSYMHWFQQKPGQAPRLWIYSTSNLASGVPARFSGSGSGTDYTLTISSLEPEDFAVYYCQQRSSYPFTFGPGTKLDIK
notes: human IgG1/kappa
B2: HGKB (antibody, human IgG1, V domains shown)
VH: B1 VH with V24A, T68S
VL: B1 VL
notes: human IgG1/kappa
B3: HFKD (antibody, human IgG1, V domains shown)
VH: B1 VH with V24A, F67L
VL: B1 VL with I3V, V57I, Y70F
notes: human IgG1/kappa
B4: HFKF (antibody, human IgG1, V domains shown)
VH: B1 VH with V24A, F67L
VL: B1 VL with I3V, W46L, V57I
notes: human IgG1/kappa
B5: HFKG (antibody, human IgG1, V domains shown)
VH: B1 VH with V24A, F67L
VL: B1 VL with I3V, F35Y, W46L, V57I, Y70F
notes: human IgG1/kappa
B6: HEKB (antibody, human IgG1, V domains shown)
VH: B1 VH with V24A, S49G
VL: B1 VL
notes: human IgG1/kappa
B7: RHE S-GKA (antibody, human IgG1, V domains shown)
VH: B1 VH with V24A, S49G, S106G
VL: B1 VL with I3V, W46L, V57I, Y70F
notes: human IgG1/kappa
B8: HCKF (antibody, human IgG1, V domains shown)
VH: B1 VH
VL: B1 VL with I3V, W46L, V57I
notes: human IgG1/kappa
B9: RHE E-DKA (antibody, human IgG1, V domains shown)
VH: B1 VH with V24A, S49G, E108D
VL: B1 VL with I3V, W46L, V57I, Y70F
notes: human IgG1/kappa
B10: HFKE (antibody, human IgG1, V domains shown)
VH: B1 VH with V24A, F67L
VL: B1 VL with I3V, W46L, Y70F
notes: human IgG1/kappa
B11: HCKG (antibody, human IgG1, V domains shown)
VH: B1 VH
VL: B1 VL with I3V, F35Y, W46L, V57I, Y70F
notes: human IgG1/kappa
B12: HDKC (antibody, human IgG1, V domains shown)
VH: B1 VH with V24A, V48L
VL: B1 VL with W46L, V57I, Y70F
notes: human IgG1/kappa
B13: HGKC (antibody, human IgG1, V domains shown)
VH: B1 VH with V24A, T68S
VL: B1 VL with W46L, V57I, Y70F
notes: human IgG1/kappa
B14: RHE E-DKD (antibody, human IgG1, V domains shown)
VH: B1 VH with V24A, S49G, E108D
VL: B1 VL with I3V, V57I, Y70F
notes: human IgG1/kappa
B15: HGKD (antibody, human IgG1, V domains shown)
VH: B1 VH with V24A, T68S
VL: B1 VL with I3V, V57I, Y70F
notes: human IgG1/kappa
B16: HCKD (antibody, human IgG1, V domains shown)
VH: B1 VH
VL: B1 VL with I3V, V57I, Y70F
notes: human IgG1/kappa
B17: HDKD (antibody, human IgG1, V domains shown)
VH: B1 VH with V24A, V48L
VL: B1 VL with I3V, V57I, Y70F
notes: human IgG1/kappa
B18: HDKE (antibody, human IgG1, V domains shown)
VH: B1 VH with V24A, V48L
VL: B1 VL with I3V, W46L, Y70F
notes: human IgG1/kappa
B19: RHE S-G KFmut (antibody, V domains shown)
VH: B1 VH with V24A, S49G, S106G
VL: B1 VL with I3V, W46L, V57I, F95Y
notes: human IgG1/kappa
B20: HFKB (antibody, human IgG1, V domains shown)
VH: B1 VH with V24A, F67L
VL: B1 VL
notes: human IgG1/kappa
B21: HDKFmut (antibody, human IgG1, V domains shown)
VH: B1 VH with V24A, V48L
VL: B1 VL with I3V, W46L, V57I, F95Y
notes: human IgG1/kappa
B22: HGKE (antibody, human IgG1, V domains shown)
VH: B1 VH with V24A, T68S
VL: B1 VL with I3V, W46L, Y70F
notes: human IgG1/kappa
B23: HGKG (antibody, human IgG1, V domains shown)
VH: B1 VH with V24A, T68S
VL: B1 VL with I3V, F35Y, W46L, V57I, Y70F
notes: human IgG1/kappa; also called HGHG
B24: RHE E-DKE (antibody, human IgG1, V domains shown)
VH: B1 VH with V24A, S49G, E108D
VL: B1 VL with I3V, W46L, Y70F
notes: human IgG1/kappa
B25: HDKB (antibody, human IgG1, V domains shown)
VH: B1 VH with V24A, V48L
VL: B1 VL
notes: human IgG1/kappa
B26: HGKF (antibody, human IgG1, V domains shown)
VH: B1 VH with V24A, T68S
VL: B1 VL with I3V, W46L, V57I
notes: human IgG1/kappa
B27: HCKC (antibody, human IgG1, V domains shown)
VH: B1 VH
VL: B1 VL with W46L, V57I, Y70F
notes: human IgG1/kappa
B28: HGKFmut (antibody, human IgG1, V domains shown)
VH: B1 VH with V24A, T68S
VL: B1 VL with I3V, W46L, V57I, F95Y
notes: human IgG1/kappa
B29: RHE E-DKFmut (antibody, human IgG1, V domains shown)
VH: B1 VH with V24A, S49G, E108D
VL: B1 VL with I3V, W46L, V57I, F95Y
notes: human IgG1/kappa
B30: HDKA (antibody, human IgG1, V domains shown)
VH: B1 VH with V24A, V48L
VL: B1 VL with I3V, W46L, V57I, Y70F
notes: human IgG1/kappa
B31: HFKFmut (antibody, human IgG1, V domains shown)
VH: B1 VH with V24A, F67L
VL: B1 VL with I3V, W46L, V57I, F95Y
notes: human IgG1/kappa
B32: RHE E-DKF (antibody, human IgG1, V domains shown)
VH: B1 VH with V24A, S49G, E108D
VL: B1 VL with I3V, W46L, V57I
notes: human IgG1/kappa
B33: RHE E-DKC (antibody, human IgG1, V domains shown)
VH: B1 VH with V24A, S49G, E108D
VL: B1 VL with W46L, V57I, Y70F
notes: human IgG1/kappa
B34: HEKD (antibody, human IgG1, V domains shown)
VH: B1 VH with V24A, S49G
VL: B1 VL with I3V, V57I, Y70F
notes: human IgG1/kappa
B35: HEKG (antibody, human IgG1, V domains shown)
VH: B1 VH with V24A, S49G
VL: B1 VL with I3V, F35Y, W46L, V57I, Y70F
notes: human IgG1/kappa
B36: HFKC (antibody, human IgG1, V domains shown)
VH: B1 VH with V24A, F67L
VL: B1 VL with W46L, V57I, Y70F
notes: human IgG1/kappa
B37: HEKC (antibody, human IgG1, V domains shown)
VH: B1 VH with V24A, S49G
VL: B1 VL with W46L, V57I, Y70F
notes: human IgG1/kappa
B38: HFKA (antibody, human IgG1, V domains shown)
VH: B1 VH with V24A, F67L
VL: B1 VL with I3V, W46L, V57I, Y70F
notes: human IgG1/kappa
B39: HCKE (antibody, human IgG1, V domains shown)
VH: B1 VH
VL: B1 VL with I3V, W46L, Y70F
notes: human IgG1/kappa
B40: HGKA (antibody, human IgG1, V domains shown)
VH: B1 VH with V24A, T68S
VL: B1 VL with I3V, W46L, V57I, Y70F
notes: human IgG1/kappa
B41: HCKFmut (antibody, human IgG1, V domains shown)
VH: B1 VH
VL: B1 VL with I3V, W46L, V57I, F95Y
notes: human IgG1/kappa
B42: HDKF (antibody, human IgG1, V domains shown)
VH: B1 VH with V24A, V48L
VL: B1 VL with I3V, W46L, V57I
notes: human IgG1/kappa
B43: HDKG (antibody, human IgG1, V domains shown)
VH: B1 VH with V24A, V48L
VL: B1 VL with I3V, F35Y, W46L, V57I, Y70F
notes: human IgG1/kappa
B44: RHE E-DKB (antibody, human IgG1, V domains shown)
VH: B1 VH with V24A, S49G, E108D
VL: B1 VL
notes: human IgG1/kappa

Each binder was assayed against T1, recombinant human Siglec-8 extracellular domain (ECD) (human, UniProt Q9NYZ4 17-363) (assay: ELISA, coated Siglec-8 ECD).
T1 construct: extracellular domain; also called Siglec-8 ECD; full Siglec-8 ECD
Description: Binding of recombinant human Siglec-8 extracellular domain (ECD) by chimeric 2E2 and chimeric 2C4 IgG1K antibodies was measured by ELISA. […] Three-fold serial dilutions of a chimeric antibody (ch2E2 or ch2C4) or mouse antibody (m2E2 or m2C4) in 0.2% BSA/TBS (starting concentration was 5000 ng/mL) was added to each coated well. The plate was incubated for 2 hours at room temperature and the wells were subsequently washed before addition of goat-anti-human Fc peroxidase conjugate (1:10000 dilution) or anti-mouse Fc peroxidase conjugate (1:30000 dilution) diluted in 0.2% BSA/TBS solution. The plate was incubated for 45 minutes at room temperature, followed by washing and addition of 30 μL K-blue HRP substrate (SkyBio Ltd) to each well. After incubation at room temperature for 15 minutes, the reaction was stopped by adding 10 μL of Red Stop solution (SkyBio Ltd) to each well. The optical density or the experimental samples was read at 650 nm using the ELISA reader PHERAStar FS (BMG Labtech).
The fully humanized antibody heavy and light chains were combined and compared with the chimeric antibody to determine if replacing the 4 Å and canonical framework residues and interface residues was sufficient to successfully humanize 2E2. Expi293 cells were co-transfected with combinations of different humanized light chain vectors in association with different humanized heavy chain vectors. Siglec-8 antigen was used to measure antibody binding by ELISA as described in Example 1.

T1 sequence (Q9NYZ4 17-363): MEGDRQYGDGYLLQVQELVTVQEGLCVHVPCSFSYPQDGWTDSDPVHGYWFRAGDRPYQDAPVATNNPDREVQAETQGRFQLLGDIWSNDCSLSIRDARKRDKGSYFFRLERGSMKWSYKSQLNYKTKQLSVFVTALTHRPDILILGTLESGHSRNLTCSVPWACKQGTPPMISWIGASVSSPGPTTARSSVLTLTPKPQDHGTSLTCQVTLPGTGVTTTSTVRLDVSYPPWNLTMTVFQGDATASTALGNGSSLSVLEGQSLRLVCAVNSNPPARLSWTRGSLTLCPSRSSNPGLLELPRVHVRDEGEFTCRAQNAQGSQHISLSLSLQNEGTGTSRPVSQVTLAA

EC50 | Binder
0.065 nM | B1
0.134 nM | B2
0.058 nM | B3
0.118 nM | B4
0.355 nM | B5
0.063 nM and 0.057 nM | B6
50.6 nM | B7
0.05 nM | B8
0.388 nM | B9
0.104 nM | B10
0.273 nM | B11
0.057 nM | B12
0.065 nM | B13
0.316 nM | B14
0.047 nM | B15
0.049 nM | B16
0.048 nM | B17
0.065 nM | B18
207 nM | B19
0.099 nM | B20
0.056 nM | B21
0.116 nM | B22

EC50 | Binder
0.254 nM | B23
0.364 nM | B24
0.055 nM | B25
0.088 nM | B26
0.058 nM | B27
0.062 nM | B28
1.4 nM | B29
0.067 nM | B30
0.057 nM | B31
0.445 nM | B32
0.516 nM | B33
0.059 nM and 0.07 nM | B34
0.302 nM | B35
0.063 nM | B36
0.069 nM and 0.065 nM | B37
0.106 nM | B38
0.059 nM | B39
0.061 nM | B40
0.078 nM | B41
0.057 nM | B42
0.113 nM | B43
0.289 nM | B44
